What was measured:
[1] = biological target: mouse CD40 (mCD40) on transfected CHO cells (mouse) (UniProt P27512); test: flow cytometry, CHO-mCD40 cells, negative control, anti-mIgG Fc-FITC; x: Anti-mouse-IgG-Fc-FITC, y: SSC-H
[2] = biological target: monkey (rhesus macaque) CD40 (rmCD40) on transfected CHO cells (rhesus macaque); test: flow cytometry, CHO-rmCD40 cells, negative control, anti-mIgG Fc-FITC; x: Anti-mouse-IgG-Fc-FITC, y: SSC-H
[3] = biological target: chimeric (mouse and human) CD40 (chiCD40) on transfected CHO cells (chimeric (mouse and human)); test: flow cytometry, CHO-chiCD40 cells, negative control, anti-mIgG Fc-FITC; x: Anti-mouse-IgG-Fc-FITC, y: SSC-H
Sequence of chimeric (mouse and human) CD40 (chiCD40) on transfected CHO cells (chimeric (mouse and human)) (chain, as listed by the source mutant limits assumed): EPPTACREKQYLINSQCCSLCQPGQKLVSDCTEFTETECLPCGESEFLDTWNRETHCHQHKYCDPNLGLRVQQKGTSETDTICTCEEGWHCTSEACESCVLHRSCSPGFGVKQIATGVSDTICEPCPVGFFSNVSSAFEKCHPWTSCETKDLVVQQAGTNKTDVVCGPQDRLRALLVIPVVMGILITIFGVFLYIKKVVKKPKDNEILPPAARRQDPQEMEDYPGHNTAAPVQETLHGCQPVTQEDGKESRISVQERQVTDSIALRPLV

Sequence of mouse CD40 (mCD40) on transfected CHO cells (mouse) (P27512 20-289 limits assumed): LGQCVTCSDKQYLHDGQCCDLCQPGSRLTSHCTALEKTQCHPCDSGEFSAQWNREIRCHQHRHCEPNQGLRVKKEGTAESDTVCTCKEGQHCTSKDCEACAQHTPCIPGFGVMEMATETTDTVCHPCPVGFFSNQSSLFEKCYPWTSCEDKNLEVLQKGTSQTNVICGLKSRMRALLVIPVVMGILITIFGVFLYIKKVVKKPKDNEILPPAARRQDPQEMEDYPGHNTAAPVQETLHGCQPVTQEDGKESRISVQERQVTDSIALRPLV
Sequence of monkey (rhesus macaque) CD40 (rmCD40) on transfected CHO cells (rhesus macaque) (P25942 other isoform, or with tags, fused parts or gaps limits assumed): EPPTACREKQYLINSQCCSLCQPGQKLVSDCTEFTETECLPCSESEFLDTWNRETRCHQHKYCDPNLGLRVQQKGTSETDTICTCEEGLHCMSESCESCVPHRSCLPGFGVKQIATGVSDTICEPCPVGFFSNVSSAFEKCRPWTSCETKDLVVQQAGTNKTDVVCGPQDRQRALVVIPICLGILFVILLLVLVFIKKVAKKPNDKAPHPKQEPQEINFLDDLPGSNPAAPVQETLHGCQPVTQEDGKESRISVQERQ

Substance: NC
- % cells in the Anti-mouse-IgG-Fc-FITC positive gate [1]: 1.01%
- % cells in the Anti-mouse-IgG-Fc-FITC positive gate [2]: 1.19%
- % cells in the Anti-mouse-IgG-Fc-FITC positive gate [3]: 1.19%

Source: patent publication US20250034271A1
